For assay [1], the target named is recombinant HA-tagged Vimentin (Vimentin-HA) (human) (UniProt P08670). The assay can be described thus: ELISA; Vimentin-HA coated as ligand at 10 ug/ml in PBS on polystyrene wells; AP-MS candidate as analyte, 1 h at RT in PBS, 0.1 % BSA, 0.02 % Tween-20; detected by anti-SpyTag antibody; approximate Kd by one-site total saturation binding fit. On the technique in general: In an ELISA, binding on a coated surface is turned into a signal by an enzyme label.

Assay [2] concerns the target EPHA2, recombinant ectodomain (human) (UniProt P29317). The assay can be described thus: ELISA; AP-MS candidate coated as ligand at 10 ug/ml in PBS on polystyrene wells; Vimentin-HA as analyte, 30 min at RT in PBS, 0.1 % BSA, 0.02 % Tween-20; detected by anti-HA-tag antibody; approximate Kd by one-site total saturation binding fit.
Assay [3] has as its target EPHB2, recombinant ectodomain (human) (UniProt P29323). The assay is described as above.
Assay [4] addresses LRRC15, recombinant ectodomain (human) (UniProt Q8TF66). The description is as above.

The Kd is the free concentration of one partner at which half of the binding sites on the other are occupied at equilibrium, for simple one-to-one binding.

In the case of “DKK1, recombinant (from UniProt O94907 32-266) (ligand)”, the dissociation constant (Kd) in assay [1] amounted to 232 nM.
For “TFRC, recombinant ectodomain (from UniProt P02786 89-760) (receptor)”, the dissociation constant Kd in assay [1] turned out to be 119 nM.
As to “recombinant HA-tagged Vimentin (Vimentin-HA) (from UniProt P08670 1-466) (natural protein)”, the Kd in assay [2] is 20.7 nM; in assay [3], 65.3 nM; in assay [4], 53.6 nM.

The values above are taken from publication PMC12447900.
